Data as given in patent US20250281587A1 (ELANCO US, published 2025).

Target: T1, recombinant mouse IL-1RI Fc chimera (R&D 771-MR-100) (mouse, UniProt P13504 20-338)
T1 construct: Coated on ELISA plates at 1 µg/ml; Used instead of canine or feline IL-1RI, which were not commercially available; also called IL-1RI receptor; Fc part of the bought chimera not given
T1 sequence (looked up): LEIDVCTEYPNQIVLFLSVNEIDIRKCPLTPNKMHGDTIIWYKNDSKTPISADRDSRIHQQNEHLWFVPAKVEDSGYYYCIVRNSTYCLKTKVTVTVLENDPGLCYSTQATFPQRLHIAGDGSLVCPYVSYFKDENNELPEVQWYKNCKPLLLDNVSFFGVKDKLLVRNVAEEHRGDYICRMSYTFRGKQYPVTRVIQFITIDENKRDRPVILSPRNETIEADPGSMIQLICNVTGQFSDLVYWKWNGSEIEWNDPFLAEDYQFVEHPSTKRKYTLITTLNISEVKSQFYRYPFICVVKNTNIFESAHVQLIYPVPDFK
Test: ELISA, mouse IL-1RI Fc chimera coated, detection with biotinylated anti-fIL-1β antibody

B1: purified feline IL-1β wild type (ligand)
chain: MGSAAIQSQDYTFRDISQKSLVLSGSYELRALHLNGQNMNQQVVFRMSFVHGEENSKKIPVVLCIKKNNLYLSCVMKDGKPTLQLEMLDPKVYPKKKMEKRFVFNKTEIKGNVEFESSQFPNWYISTSQAEEMPVFLGNTKGGQDITDFIMESASTSHHHHHHGGCG
notes: also called purified wild type feline IL-1β; recombinant feline wild type IL-1β
B1: binds.
